The target of experiment [1] is clade-C (ZM109) V1V2-ferritin nanoparticle (V1V2-FR) (HIV-1 ZM109 (clade C) | not stated) (UniProt Q9ZLI1). Description: ELISA.
Experiment [2] addresses gp120-ferritin (gp120-FR) nanoparticle. Description: ELISA. On the technique in general: ELISA stands for enzyme-linked immunosorbent assay.

The term EC50 denotes the concentration that produces a half-maximal response. Read a high EC50 as lower potency in that assay. On to PGT121, for which the concentration for a half-maximal effect (EC50) is 0.87 µg/mL in experiment [1] and 0.077 µg/mL in experiment [2].

The record behind these values is paper PMC5573810.
